{"source": "patent US8815213B2", "about": "“RGD-(bacterio)chlorophyll conjugates for photodynamic therapy and Imaging of Necrotic tumors” (Yeda Research and Development Co. Ltd., priority 2008, dated 2014)", "key": {"[1]": {"system": "human ovarian MLS-mBanana primary tumors, necrotic (>1 cm^3)", "test": "In-vivo NIR fluorescence imaging of uptake in MLS-mBanana primary necrotic tumors", "parameters": "species or system CD-1 nude female mice", "from_the_text": "In order to establish the generality of the results obtained in the experiments above, the accumulation of compound 13 in the necrotic domain was further examined in a different tumor type, generated from MLS-mBanana human ovarian cancer cell line. […] Shortly after injection, the compound 13 NIR fluoresces was mostly detected from the liver and the tumor."}, "[2]": {"system": "MDA-MB-231-RFP non-necrotic tumors (~0.5 cm^3)", "conditions": "mouse, in vivo", "description": "(§2) (vi) Mouse tumor model—MDA-MB-231-RFP fluorescent human breast cancer cells and MLS-mBanana fluorescent human ovarian cancer cells (5×10^6 in 100 μl saline) were trypsinated and collected at subconfluency and then inoculated into the back or mammary fat pad of female mice. Tumors were allowed to develop to two desired sizes—necrotic tumors (˜1 cm^3, within 3-4 weeks) and non-necrotic tumors (˜0.5 cm^3 within 1-2 weeks).\n(§3) (vii) Whole body fluorescence imaging—Mice were anaesthetized by i.p. injection of 30 μl mixture of 85:15 ketamine:xylazine. […] Red fluorescent protein (RFP), pRSETB-mBanana and the photosensitizers fluorescence were monitored by in-vivo optical imaging system, IVIS®100 (Xenogen Corp., Alameda, Calif.). Main filter set for tumor imaging comprised excitation filter at 500-550 nm and emission filter at 575-650 nm; Background filter set for subtracting tissue auto-fluorescence comprised excitation filter at 460-490 nm and emission filter at 575-650 nm. Drugs imaging main filter set comprised excitation filter at 665-695 nm and emission filter at 810-875 nm. Images were obtained during the same exposure time and are illustrated on the same linear color scale to allow for a qualitative comparison.\n(§4) The same parameters were next examined in tumors ≦0.5 cm^3, which are non-necrotic."}, "[3]": {"system": "MDA-MB-231-RFP necrotic tumors", "test": "Fluorescence signal measurement in necrotic tumors, tumor vs. collateral side", "type": "in vivo", "conditions": "average of 9 mice", "method": "(viii) Fluorescence signal measurement in necrotic tumors—Tumor margins—region of interest (ROI), from the whole body in-vivo images was marked and the fluorescence signal within the circled margins was expressed in photon/sec.\nThe same ROI was used to measure photon/sec in the collateral side. In addition, for background measurements, tumor and collateral side ROIs were measured in three untreated mice and averaged. Measured values of the fluorescence from each ROI were divided by the area to provide normalized fluorescence signal intensity in photon/sec/cm^2. Signal measurements were collected from 15 min to 216 h post compound 13 injection. In each time point, the background was subtracted and the average was calculated as was the ratio between the fluorescence in the tumor margins and the collateral side.\nIn order to evaluate semi-quantitatively the accumulation pattern of compound 13 in necrotic tumors, the average fluorescence signal for compound 13 in necrotic tumors of 9 mice was calculated and plotted over 216 h, at several time points (FIG. 8). From 12 h post injection and onward the fluorescence signal from the tumor became distinctively stronger than that of an equivalent control region on the collateral side. The ratio of the fluorescence between the tumor and the collateral side increased in time and reached a plateau at ˜8 from 192 h."}, "[4]": {"system": "orthotopic human breast MDA-MB-231-RFP primary tumor, necrotic (~1 cm^3)", "conditions": "mouse, in vivo", "description": "as §2, §3\nThe accumulation pattern of compound 13 in necrotic MDA-MB-231-RFP tumors (≧1 cm^3) in vivo was examined. […] Whole animal images were recorded concomitantly, using the filter sets as described in Materials and Methods section (vii) above. Dynamic fluorescence images were acquired every 1-1.5 h for 9 h, and at 24 h post injection of compound 13 (FIGS. 4A-4B), and then for every 24 h for the next 7 days (FIGS. 5A-5B)."}, "[5]": {"system": "MDA-MB-231-RFP necrotic tumor domains", "test": "Excised tumor fluorescence imaging, viable versus necrotic domains", "type": "in vivo, mice", "method": "(§1) Mice were sacrificed, tumors were excised, cut in half and imaged at different time intervals: 10 min, 1, 4 and 24 h, 3, 5 and 7 days for MDA-MB-231-RFP and 7 days for MLS-mBanana using the Xenogen IVIS® System. Filter sets used for the fluorescence imaging are described in (vii).\nThe markedly different dynamic fluorescence patterns of necrotic and non-necrotic breast tumor xenografts implanted in the mammary pads, motivated investigation of the correlation between the tumor histology and compound 13 fluorescence signal accumulation. […] Images were taken at several time points (10 min, 1, 4 and 24 h, 3, 5 and 7 days post injection) using Xenogen IVIS® System as described in Materials and Methods, section (vii). Results shown in FIGS. 23-29 present compound 13 fluorescence accumulation at different time points. For each time point, 3 animals were tested. […] At 4 h, there was some diffusion towards the necrotic domain. […] In this set of experiments it was shown that as time progresses, compound 13 moves through the viable domain into the necrotic domain and accumulates there specifically for a long period of time.\nIn view of the pattern of accumulation observed for compound 13, other Bchl derivatives were tested. […] Images were taken using Xenogen IVIS® System as described above. […] Similar results were observed when tumors were excised 3 and 5 days post drug injection (N=3 for each time point)."}, "[6]": {"system": "MLS-mBanana necrotic tumor domains", "test": "Excised tumor fluorescence imaging, MLS-mBanana", "type": "in vivo, mice", "conditions": "7 days post drug injection", "method": "as §1\nHere the results were somewhat different. In most cases the necrosis pattern in this type of tumor was not central, namely, there was a wide spread necrosis that was not specifically located in the middle of the tumor or generated from one place in the tumor. In these cases, the accumulation was not as prolonged. In the few cases where central necrosis was observed, the accumulation pattern was similar to that in the MDA-MB-231-RFP tumors. FIGS. 31-32 show the results obtained 7 days post drug injection."}, "[7]": {"system": "MLS-mBanana non-necrotic tumors (~0.5 cm^3)", "conditions": "mouse, in vivo", "excerpt": "Red fluorescent protein (RFP), pRSETB-mBanana and the photosensitizers fluorescence were monitored by in-vivo optical imaging system, IVIS®100 (Xenogen Corp., Alameda, Calif.). Main filter set for tumor imaging comprised excitation filter at 500-550 nm and emission filter at 575-650 nm; Background filter set for subtracting tissue auto-fluorescence comprised excitation filter at 460-490 nm and emission filter at 575-650 nm. Drugs imaging main filter set comprised excitation filter at 665-695 nm and emission filter at 810-875 nm. Images were obtained during the same exposure time and are illustrated on the same linear color scale to allow for a qualitative comparison."}, "[8]": {"system": "MDA-MB-231-RFP primary non-necrotic tumors", "test": "Competition assay between compound 13 and free c(RGDfK) binding", "type": "in vivo, mice", "conditions": "24 h", "method": "(ix) Competition assay between compound 13 and free c(RGDfK) binding—Mice were injected with excess (8.5 μmol) of free c(RGDfK) peptide one hour prior to the injection of compound 13 (140 nmol). The control group was injected only with compound 13 (140 nmol). Fluorescent images were taken 24 h post compound 13 injection. Fluorescence imaging main filter set was used as described in (vii).\nCompound 13 was administrated with or without prior injection of c(RGDfK) as described in Example 3."}, "[9]": {"system": "MDA-MB-231-RFP non-necrotic tumors (~0.5 cm^3)", "test": "In-vivo whole body NIR fluorescence imaging of drug up-take in primary non-necrotic MDA-MB-231-RFP xenograft tumors", "description": "as §2, §3, §4"}, "[10]": {"system": "xenografts of primary tumors", "conditions": "up to; cited from earlier work"}, "[11]": {"system": "MDA-MB-231-RFP non-necrotic and necrotic tumors at the mammary pad", "test": "Uptake of compound 25 in MDA-MB-231-RFP primary, necrotic and non necrotic tumors", "type": "in vivo, CD1-nude mice", "method": "Two experiments were performed in order to determine whether the tumor up-take of compound 13 and the resulted accumulation of the NIR fluorescence signal are driven by the RGD moiety. In the first experiment the accumulation of the fluorescence signal at different times after compound 13 injection was compared to that of free 2H-MLT (compound 25) injection to CD1-nude mice grafted with MDA-MB-231-RFP non-necrotic (≦0.5 cm^3) and necrotic (˜1 cm^3) tumors at the mammary pad. The second experiment was a competition assay between compound 13 and free c(RGDfK).\nDynamic fluorescence images were acquired for both necrotic and non necrotic tumors every 1-1.5 h for 8.5-9 h, and at 24 h after initial injection of compound 25 (FIGS. 18A-18B and 20A-20B) and for every 24 h for the following three days (FIGS. 19A-19B and 21A-21B). […] The fluorescence signal values were ˜2 orders of magnitude smaller than the maximally observed values for compound 13 (at much longer time intervals). The fluorescence signal dropped down to non-significant values already at 20 min post injection. Meanwhile, the fluorescence signal accumulated mostly in the liver and in the heart."}}, "note": "Counter-ions that a name gives are not always drawn. Like-named read-outs stand apart in the source and are kept apart here.", "data": [{"compound": "CC[C@H]1c2cc3[nH]c(c(CC(=O)OC)c4nc(cc5[nH]c(cc(n2)[C@@H]1C)c(C(C)=O)c5C)[C@@H](C)[C@@H]4CCC(=O)NCCCC[C@@H]1NC(=O)[C@@H](Cc2ccccc2)NC(=O)[C@H](CC(=O)O)NC(=O)CNC(=O)[C@H](CCCNC(=N)N)NC1=O)c(C(=O)NCCS(=O)(=O)O)c3C", "note": "[compound 13, 3^1-oxo-15-methoxycarbonylmethyl-Rhodobacteriochlorin 13^1-(2-sulfoethyl) amide-17^3-c(RGDfK)amide potassium salt]", "values": [{"measurement": "clearance compared with MDA-MB-231-RFP necrotic tumors", "setting": "[1]; mouse, in vivo", "value": "markedly faster"}, {"measurement": "clearance from the tumor almost completed", "setting": "[1]; mouse, in vivo", "value": 3, "unit": "days"}, {"measurement": "complete drug clearance by that time", "setting": "[1]; mouse, in vivo", "value": "≤ 4", "unit": "days"}, {"measurement": "time of maximum concentration in the necrotic zone", "setting": "[1]; mouse, in vivo", "value": 24, "unit": "h"}, {"measurement": "concentration in necrotic tumors versus non-necrotic tumors", "setting": "[1]; same linear fluorescence scale, 2 days post injection", "value": "much higher"}, {"measurement": "clearance from the tumor after accumulation", "setting": "[2]", "value": "< 24", "unit": "h"}, {"measurement": "complete drug clearance by that time", "setting": "[2]", "value": "≤ 3", "unit": "days"}, {"measurement": "fluorescence from the non-necrotic tumors", "setting": "[2]", "value": "practically no fluorescence"}, {"measurement": "time of peak tumor fluorescence, averaged measurements", "setting": "[2]", "value": "1 to 6.5", "unit": "h"}, {"measurement": "ratio of the fluorescence between the tumor and the collateral side, plateau", "setting": "[3]; from 192 h post injection", "value": "~8"}, {"measurement": "time from which tumor fluorescence signal is distinctively stronger than collateral side", "setting": "[3]; post injection", "value": "≥ 12", "unit": "h"}, {"measurement": "time of peak tumor concentration ratio, compared to other organs", "setting": "[4]", "value": "≥ 48", "unit": "h"}, {"measurement": "clearance from the liver in the following days", "setting": "[4]; iv, 15 mg/kg", "value": "completely clearing from the liver"}, {"measurement": "clearance from the tumor thereafter", "setting": "[4]; iv, 15 mg/kg", "value": "extremely slow clearance"}, {"measurement": "location of drug fluorescence in excised tumor", "setting": "[5]; 10 min to 4 h post drug injection, 15 mg/kg", "value": "only at the viable area"}, {"measurement": "location of drug fluorescence in excised tumor", "setting": "[5]; 24 h post injection", "value": "higher drug fluorescence from the necrotic domain"}, {"measurement": "location of drug fluorescence in excised tumor", "setting": "[5]; from three days post injection (3, 5 and 7 days)", "value": "shifted completely to the necrotic zone"}, {"measurement": "presence of drug in excised tumor", "setting": "[6]; central necrosis", "value": "clearly present in the necrotic domain"}, {"measurement": "presence of drug in excised tumor", "setting": "[6]; no central necrosis", "value": "not present"}, {"measurement": "almost complete drug clearance by that time", "setting": "[7]", "value": "≤ 4", "unit": "days"}, {"measurement": "time at which NIR fluorescence reached peak values in the tumor", "setting": "[7]", "value": "~1", "unit": "h"}, {"measurement": "time of peak tumor fluorescence, average measurements", "setting": "[7]", "value": "1 to 3.5", "unit": "h"}, {"measurement": "accumulation in the tumor", "setting": "[8]; 140 nmol alone (control group)", "value": "detectable"}, {"measurement": "accumulation in the tumor", "setting": "[8]; 140 nmol, 1 h after 8.5 μmol free c(RGDfK)", "value": "no accumulation in the tumor was detected"}]}, {"compound": "Palladium 3^1-oxo-15-methoxycarbonyl-methyl-Rhodobacteriochlorin 13^1-(2-sulfoethyl)amide-17^3-c(RGDfK)amide potassium salt [compound 24]", "values": [{"measurement": "time at which NIR fluorescence reached peak values in the liver", "setting": "[9]; 15 mg/kg i.v., post drug injection", "value": 5.5, "unit": "h"}, {"measurement": "time at which NIR fluorescence reached peak values in the tumor", "setting": "[9]; 15 mg/kg i.v., post injection", "value": "~2.5", "unit": "h"}, {"measurement": "fluorescence from the non-necrotic tumors", "setting": "[9]; 24 hours post injection", "value": "practically no fluorescence"}, {"measurement": "time of peak tumor fluorescence, averaged measurements", "setting": "[9]; post drug injection, 16 animals (compound 13), 5 animals (compound 24)", "value": "1 to 4.5", "unit": "h"}, {"measurement": "presence of drug in excised tumor", "setting": "[5]; nine days post drug injection, N=3", "value": "clearly present in the necrotic domain"}, {"measurement": "accumulation in xenografts of primary tumors", "setting": "[10]", "value": "4 to 8", "unit": "µM"}]}, {"compound": "CC[C@H]1c2cc3[nH]c(c(CC(=O)OC)c4nc(cc5[nH]c(cc(n2)[C@@H]1C)c(C(C)=O)c5C)[C@@H](C)[C@@H]4CCC(=O)O)c(C(=O)NCCS(=O)(=O)[O-])c3C.[K+]", "note": "[compound 25, 3^1-oxo-15-methoxycarbonylmethyl-Rhodo-bacteriochlorin 13^1-(2-sulfoethyl) amide potassium salt]", "values": [{"measurement": "accumulation in small (non-necrotic) and large (necrotic) tumors", "setting": "[11]; mouse, in vivo", "value": "no short or long term accumulation was observed"}, {"measurement": "fluorescence signal values, smaller than the maximally observed values for compound 13", "setting": "[11]; mouse, in vivo", "value": "~2 orders of magnitude"}, {"measurement": "time at which fluorescence signal dropped to non-significant values", "setting": "[11]; post injection", "value": "≤ 20", "unit": "min"}, {"measurement": "time of maximal concentration (NIR fluorescence signal) in the tumor", "setting": "[11]; post injection, if any concentration was observed at all", "value": "5 to 10", "unit": "min"}]}]}
